Measured values from US20250186491A1, “COMPOSITIONS AND METHODS FOR TREATING CANCER WITH CHIMERIC TIM RECEPTORS IN COMBINATION WITH INHIBITORS OF POLY (ADP-RIBOSE) POLYMERASE” (CERO THERAPEUTICS HOLDINGS, INC., priority 2020, published 2025).
“Also recorded” adds a separate entry of the source. Where two headings read alike, the source gives them in different places.

Tests used:
[1] = tested on: Kuramochi-mCh-NLS cells; experiment: Co-culture of chimeric Tim receptor T cells with Niraparib-treated Kuramochi cells (IncuCyte); format: cell-based, human
Experimental: Kuramochi cells expressing a mCherry-NLS plasmid were incubated for 20 hours with 25, 12.5, or 6.25 μM Niraparib. The next day the Niraparib concentration was reduced to 0.52 μM and co-cultures of primary human CD4+ and CD8+ T cells expressing chimeric Tim receptor construct 13A (TIM4 binding domain-CD28 transmembrane domain—CD28 costimulatory domain-CD3ζ signaling domain) (SEQ ID NO 162) were added to the Kuramochi culture. […] The number of Kuramochi cells expressing mCherry-NLS was monitored via IncuCyte.
Kuramochi cells expressing a mCherry-NLS plasmid were incubated for ˜20 hours with 1.56 μM Niraparib. The next day, media were removed from cells and replaced with fresh media with 0 μM Niraparib, and primary human CD4+ and CD8+ T cells expressing chimeric Tim receptor CTX140 (Tim4 binding domain-CD28 hinge-CD28 transmembrane-CD28 costimulatory domain-DAP12)(SEQ ID NO: 195) or CTX156 (tEGFR control) were added to the Kuramochi culture. The number of Kuramochi cells expressing mCherry-NLS was monitored via IncuCyte.
21500 Kuramochi ovarian cancer cells expressing an mCherry-NLS plasmid were plated on day 0.25, 12.5, or 6.25 μM Niraparib were added to cell culture ˜4 hours later. ˜20 hours after initial Niraparib dose, primary human CD4+ and CD8+ T cells expressing chimeric Tim receptor CTX137 (Tim4 binding domain-CD28 transmembrane-CD28 costimulatory domain-DAP12) (SEQ ID NO: 197) or CTX156 (tEGFR control) and maintenance dose of 0.52 μM Niraparib were added.
T cell transduction and culturing: CD4 and CD8 T cells were isolated from frozen healthy donor PBMCs using Miltenyi CD4+ and CD8+ isolation kits. CD4 and CD8 T cells were then mixed in a 1:1 ratio and incubated overnight in a flat bottom 24 well plate in OpTmizer medium supplemented with cell serum replacement, IL-Glutamine, GlutaMAX, and IL-2, IL-7, and IL-15 cytokines, and TransAct diluted 1:50. […] T cells were counted and supplemented with fresh medium approximately every two days thereafter. […]

[2] = low phosphatidylserine density, cited from earlier work

B1: CTX137: Tim4 binding domain-CD28 transmembrane-CD28 costimulatory domain-DAP12, SEQ ID NO: 197 (protein)
chain: MSKEPLILWLMIEFWWLYLTPVTSETVVTEVLGHRVTLPCLYSSWSHNSNSMCWGKDQCPYSGCKEALIRTDGMRVTSRKSAKYRLQGTIPRGDVSLTILNPSESDSGVYCCRIEVPGWFNDVKINVRLNLQRASTTTHRTATTTTRRTTTTSPTTTRQMTTTPAALPTTVVTTPDLTTGTPLQMTTIAVFTTANTCLSLTPSTLPEEATGLLTPEPSKEGPILTAESETVLPSDSWSSVESTSADTVLLTSKESKVWDLPSTSHVSMWKTSDSVSSPQPGASDTAVPEQNKTTKTGQMDGIPMSMKNEMPISQFWVLVVVGGVLACYSLLVTVAFIIFWVRSKRSRLLHSDYMNMTPRRPGPTRKHYQPYAPPRDFAAYRSYFLGRLVPRGRGAAEAATRKQRITETESPYQELQGQRSDVYSDLNTQRPYYK
modifications: Tim4 binding domain-CD28 transmembrane-CD28 costimulatory signaling domain-DAP12 signaling domain, amino acids 1-24 are signal peptide (CTX137)
Question: With B1 as the molecule, how does the Kuramochi cell numbers ([1]; Niraparib 25 μM pre-incubation + 0.52 μM maintenance, control CTX156, FIG. 6) read?
Answer: reduces Kuramochi cell numbers

Question: And the “number of Kuramochi cells in culture vs mock transduction control” value ([1]; Niraparib 25, 12.5 or 6.25 μM pre-treatment ~20 h, then 0.52 μM, CD4+/CD8+ T cells, FIG. 4, FIG. 7)?
Answer: reduces Kuramochi cell numbers; also recorded: significantly reduce the number of Kuramochi cells

B2: Tim-4: phosphatidylserine receptor typically expressed on antigen presenting cells (protein, UniProt Q96H15 25-378, looked up)
T-cell immunoglobulin and …: ETVVTEVLGHRVTLPCLYSSWSHNSNSMCWGKDQCPYSGCKEALIRTDGMRVTSRKSAKYRLQGTIPRGDVSLTILNPSESDSGVYCCRIEVPGWFNDVKINVRLNLQRASTTTHRTATTTTRRTTTTSPTTTRQMTTTPAALPTTVVTTPDLTTGTPLQMTTIAVFTTANTCLSLTPSTLPEEATGLLTPEPSKEGPILTAESETVLPSDSWSSVESTSADTVLLTSKESKVWDLPSTSHVSMWKTSDSVSSPQPGASDTAVPEQNKTTKTGQMDGIPMSMKNEMPISQLLMIIAPSLGFVLFALFVAFLLRGKLMETYCSQKHTRLDYIGDSKNVLNDVQHGREDEDGLFTL
Question: With B2 as the molecule, how does the “binding at Low PtdSer” value [2] read?
Answer: Minimal

Question: And the “binding at Low PtdSer” value ([2]; listed as Tim4 binding domain)?
Answer: binds minimally

B3: CTX140: Tim4 binding domain-CD28 hinge-CD28 transmembrane-CD28 costimulatory domain-DAP12, SEQ ID NO: 195 (protein)
chain: MSKEPLILWLMIEFWWLYLTPVTSETVVTEVLGHRVTLPCLYSSWSHNSNSMCWGKDQCPYSGCKEALIRTDGMRVTSRKSAKYRLQGTIPRGDVSLTILNPSESDSGVYCCRIEVPGWFNDVKINVRLNLQRASTTTHRTATTTTRRTTTTSPTTTRQMTTTPAALPTTVVTTPDLTTGTPLQMTTIAVFTTANTCLSLTPSTLPEEATGLLTPEPSKEGPILTAESETVLPSDSWSSVESTSADTVLLTSKESKVWDLPSTSHVSMWKTSDSVSSPQPGASDTAVPEQNKTTKTGQMDGIPMSMKNEMPISQIEVMYPPPYLDNEKSNGTIIHVKGKHLCPSPLFPGPSKPFWVLVVVGGVLACYSLLVTVAFIIFWVRSKRSRLLHSDYMNMTPRRPGPTRKHYQPYAPPRDFAAYRSYFLGRLVPRGRGAAEAATRKQRITETESPYQELQGQRSDVYSDLNTQRPYYK
modifications: Tim4 binding domain-CD28 hinge-CD28 transmembrane-CD28 costimulatory signaling domain-DAP12 signaling domain, amino acids 1-24 are signal peptide(CTX140)
Question: For B3, which “number of Kuramochi cells in culture vs mock transduction control” value ([1]; Niraparib 1.56 μM pre-incubation ~20 h, then 0 μM, control CTX156, FIG. 5) is on record?
Answer: reduces Kuramochi cell numbers; also recorded: significantly reduce the number of Kuramochi cells
